A word on the Kd: it is the concentration at which binding is half-saturated. Read a low Kd as tighter binding. One may read the IC50 as the midpoint of a concentration-inhibition curve.

From the Immune Epitope Database (IEDB) come the findings set out here.

One test has as its target HLA-B*27:03. Nature of the test: IEDB peptide-MHC binding, purified MHC/competitive/fluorescence; filed as Kd, often an IC50 or EC50 that approximates it; ≥ and ≤ were set here for values at or beyond the usual limits of such assays.
A further test deals with HLA-A*26:01. The test is described as above.
For a further test, the target named is HLA-B*51:01. The description is as above.
For the next test, the target named is HLA-B*15:17. The test is described as above.
The target of test [1] is HLA-A*24:02. In words: IEDB peptide-MHC binding, purified MHC/competitive/fluorescence; ≥ and ≤ were set here for values at or beyond the usual limits of such assays. Particulars: source organism: Zaire ebolavirus.
The target in test [2] is HLA-A*02:01. The description is as above. Particulars: source organism: Zaire ebolavirus.
Test [3] concerns the target HLA-A*02:12. Nature of the test: IEDB peptide-MHC binding, purified MHC/direct/fluorescence; filed as Kd, often an IC50 or EC50 that approximates it; ≥ and ≤ were set here for values at or beyond the usual limits of such assays.
A further test has as its target HLA-A*29:02. The test is described as above. As to conditions: source organism: Zaire ebolavirus.
In test [4] the target is HLA-B*15:01. The test is described as above.
A further test concerns the target HLA-A*68:02. Described as above.
The target in a further test is HLA-B*44:02. The description is as above.
In another test the target is HLA-B*18:01. The description is as above.
The target of the next test is HLA-A*01:01. The description is as above.
The target of another test is HLA-A*24:03. The description is as above. As to conditions: source organism: Zaire ebolavirus.
The target of the next test is HLA-B*40:01. The test is described as above.
Test [5] deals with HLA-B*46:01. The test is described as above.
The next test concerns the target HLA-A*69:01. The test is described as above.
The target of a further test is HLA-A*02:11. Described as above.
The next test deals with HLA-B*58:01. The description is as above.
The next test addresses HLA-B*57:01. The test is described as above.
A further test deals with HLA-A*31:01. The description is as above.
Test [6] deals with HLA-B*39:01. The test is described as above. As to conditions: source organism: Zaire ebolavirus.
In another test the target is HLA-A*03:01. The test is described as above.
The target of test [7] is HLA-A*02:01. The test is described as above.
Another test deals with HLA-B*07:02. The test is described as above.
The next test has as its target HLA-B*27:05. The description is as above.
Test [8] deals with HLA-B*46:01. Nature of the test: IEDB peptide-MHC binding, purified MHC/competitive/fluorescence; filed as Kd, often an IC50 or EC50 that approximates it; ≥ and ≤ were set here for values at or beyond the usual limits of such assays. Particulars: source organism: Influenza A virus (A/swine/Italy/1521/98(H1N2)).
In test [9] the target is HLA-A*24:02. Nature of the test: IEDB peptide-MHC binding, purified MHC/direct/fluorescence; filed as Kd, often an IC50 or EC50 that approximates it; ≥ and ≤ were set here for values at or beyond the usual limits of such assays. As to conditions: source organism: Influenza A virus (A/duck/Mongolia/47/2001(H7N1)).
The target in the next test is HLA-B*08:01. Described as above.
The target of the next test is HLA-A*11:01. Described as above.
The target in another test is HLA-C*12:03. The description is as above.
The target of the next test is HLA-A*02:19. In words: IEDB peptide-MHC binding, purified MHC/competitive/fluorescence; filed as Kd, often an IC50 or EC50 that approximates it; ≥ and ≤ were set here for values at or beyond the usual limits of such assays. Particulars: source organism: Bacillus licheniformis.
The target in the next test is HLA-C*06:02. In words: IEDB peptide-MHC binding, purified MHC/direct/fluorescence; filed as Kd, often an IC50 or EC50 that approximates it; ≥ and ≤ were set here for values at or beyond the usual limits of such assays.
For test [10], the target named is HLA-B*15:01. In words: IEDB peptide-MHC binding, purified MHC/competitive/fluorescence; filed as Kd, often an IC50 or EC50 that approximates it; ≥ and ≤ were set here for values at or beyond the usual limits of such assays. As to conditions: source organism: Bacillus cereus G9241.
Another test concerns the target HLA-B*35:01. Described as above. Particulars: source organism: Bacillus cereus G9241.
Test [11] has as its target HLA-B*39:01. Described as above. Particulars: source organism: Hantaan virus 76-118.
The target in the next test is HLA-B*48:01. Nature of the test: IEDB peptide-MHC binding, purified MHC/direct/fluorescence; filed as Kd, often an IC50 or EC50 that approximates it; ≥ and ≤ were set here for values at or beyond the usual limits of such assays. As to conditions: source organism: Orthohantavirus hantanense.
Test [12] addresses HLA-A*02:12. Nature of the test: IEDB peptide-MHC binding, purified MHC/competitive/fluorescence; filed as Kd, often an IC50 or EC50 that approximates it; ≥ and ≤ were set here for values at or beyond the usual limits of such assays. Particulars: source organism: Vibrio cholerae.
Test [13] deals with HLA-A*02:01. The test is described as above. Particulars: source organism: Vibrio cholerae.
The mark [14] stands for this setting: source organism: Zaire ebolavirus.
The mark [15] stands for this setting: source organism: Influenza A virus (A/Puerto Rico/8/34/Mount Sinai(H1N1)).
[16] abbreviates: source organism: Influenza A virus (A/duck/Mongolia/47/2001(H7N1)).
Setting [17] is: source organism: Bacillus licheniformis.
Where [18] appears, read: source organism: Mycobacterium tuberculosis variant bovis BCG str. Pasteur 1173P2.
The mark [19] stands for this setting: source organism: Hantaan virus 76-118.
Setting [20] is: source organism: Limestone Canyon virus.
[21] abbreviates: source organism: Orthohantavirus hantanense.

Take GHMMVIFRL: the Kd in the test with HLA-B*27:03 (setting [14]), with HLA-A*26:01 (setting [14]), with HLA-B*51:01 (setting [14]), with HLA-B*15:17 (setting [14]), in the test with HLA-A*02:12 [3] (setting [14]) and in the test with HLA-A*29:02 was at least 20 µM throughout. Moreover, the equilibrium dissociation constant (Kd) was at least 20000 nM with HLA-B*15:01 [4] (setting [14]); at least 20 µM in the test with HLA-A*68:02 (setting [14]); at least 20 µM in the test with HLA-B*44:02 (setting [14]); at least 20 µM in the test with HLA-B*18:01 (setting [14]); at least 20 µM with HLA-A*01:01 (setting [14]); at least 20 µM with HLA-A*24:03. Further, the Kd with HLA-B*40:01 (setting [14]), in the test with HLA-B*46:01 [5] (setting [14]), with HLA-A*69:01 (setting [14]), with HLA-A*02:11 (setting [14]), in the test with HLA-B*58:01 (setting [14]) and with HLA-B*57:01 (setting [14]) was at least 20 µM in each case. Moreover, the Kd in the test with HLA-A*31:01 (setting [14]) was at least 20 µM; with HLA-B*39:01 [6], 86.7 nM; with HLA-A*03:01 (setting [14]), at least 20 µM; with HLA-A*02:01 [7] (setting [14]), at least 20 µM; in the test with HLA-B*07:02 (setting [14]), at least 20 µM; with HLA-B*27:05 (setting [14]), at least 20 µM. For the same sequence, the IC50 with HLA-A*24:02 [1] turned out to be 190 nM; with HLA-A*02:01 [2], 205 nM.

In the case of FLKDVMESM, the Kd is 23.9 nM with HLA-B*46:01 [8]; at least 20 µM in the test with HLA-A*24:02 [9]; 220 nM with HLA-B*15:01 [4] (setting [15]); 0.158 µM with HLA-B*08:01 (setting [15]); at least 20 µM with HLA-B*44:02 (setting [16]); at least 20 µM with HLA-B*18:01 (setting [16]). For the same sequence, the Kd is at least 20 µM in the test with HLA-A*01:01 (setting [16]); at least 20 µM with HLA-A*11:01 (setting [16]); at most 1 nM in the test with HLA-C*12:03 (source organism: Influenza A virus (A/swine/Italy/1521/98(H1N2))); at least 20 µM in the test with HLA-B*40:01 (setting [16]); at most 0.001 µM in the test with HLA-A*02:11 (source organism: Influenza A virus H3N2); at least 20 µM with HLA-B*58:01 (setting [16]). In addition, the Kd was at least 20 µM in the test with HLA-A*03:01 (setting [16]), 0.312 µM with HLA-B*07:02 (setting [15]) and at least 20 µM with HLA-B*27:05 (setting [16]).

On to RLIWSHHHI, for which the Kd with HLA-A*02:19 amounted to 87.9 nM; with HLA-B*15:01 [4] (setting [17]) it was 296 nM; with HLA-A*69:01 (setting [17]) it was 1.26 µM; with HLA-B*58:01 (setting [17]) it was 0.0247 µM; with HLA-A*31:01 (setting [17]) it was 0.462 µM; with HLA-A*02:01 [7] (setting [17]), 1.21 µM. Also, the Kd in the test with HLA-B*07:02 (setting [17]) was 12 µM.

With YAKFARITL, the Kd in the test with HLA-C*12:03 (setting [18]) was at most 1 nM.

In turn, YTWNGTQWV returned an equilibrium dissociation constant (Kd) with HLA-C*06:02 (setting [18]) of 343 nM.

Take FVHDSVQYF: the figures for the Kd with HLA-B*15:01 [10], with HLA-B*35:01 and with HLA-C*06:02 (source organism: Bacillus cereus G9241) were 28.9 nM, 0.9 nM and 133 nM, respectively.

With IRKPKHLYV, the dissociation constant Kd in the test with HLA-B*27:03 (setting [19]), with HLA-A*26:01 (setting [19]), with HLA-B*51:01 (setting [19]), with HLA-B*15:17 (setting [19]), with HLA-B*39:01 [11] and with HLA-A*02:12 [3] (setting [20]) was at least 20 µM each time. Moreover, the Kd in the test with HLA-B*15:01 [4] (setting [21]) was at least 20000 nM; with HLA-B*08:01 (source organism: Hantavirus CRF367), 14 µM; with HLA-A*68:02 (setting [20]) it was at least 20 µM; with HLA-B*44:02 (setting [21]), at least 20 µM; in the test with HLA-B*18:01 (setting [21]) it was at least 20 µM; with HLA-A*01:01 (setting [21]), at least 20 µM. The Kd with HLA-A*11:01 (setting [21]), in the test with HLA-B*40:01 (setting [21]), with HLA-B*46:01 [5] (setting [21]), with HLA-A*69:01 (setting [21]), with HLA-A*02:11 (setting [20]) and with HLA-B*58:01 (setting [21]) was at least 20 µM each time. Moreover, the Kd with HLA-B*57:01 (setting [21]) is at least 20 µM; with HLA-A*31:01 (setting [21]), at least 20 µM; in the test with HLA-B*48:01 it was at least 20 µM; with HLA-A*03:01 (setting [21]) it was at least 20 µM; with HLA-A*02:01 [7] (setting [21]), at least 20 µM; with HLA-C*06:02 (setting [19]), 31 nM. Besides, the Kd with HLA-B*07:02 (setting [21]) and with HLA-B*27:05 (setting [21]) was at least 20 µM throughout.

As for NLNFDQAAL, the figures for the Kd in the test with HLA-A*02:12 [12] and with HLA-A*02:01 [13] were 82.8 nM and 96.7 nM, respectively.
